Patent US20230104578A1, “ANTI-ADRENOMEDULLIN (ADM) ANTIBODY OR ANTI-ADM ANTIBODY FRAGMENT OR ANTI-ADM NON-IG SCAFFOLD FOR USE IN THERAPY OR PREVENTION OF SHOCK” (ADRENOMED AG, priority 2020, published 2023)

What was measured:
[1] = target: human recombinant adrenomedullin receptor (CRLR+RAMP3) (human)
[2] = target: human recombinant adrenomedullin receptor (CRLR+RAMP3) (human); remark: listed apart in the source

IC50 (read off the curve); cAMP (HTRF) induced by 0.67 nM mADM, % inhibition [1]: 3 µM | IC50 (read off the curve); cAMP (HTRF) induced by 5.63 nM hADM, % inhibition [2]: 0.3 µM
Substance: human ADM 22-52 (peptide)
